This note sets out measurements from publication PMC7881136.

The experiment has as its target Kapβ2 (untagged, GST removed) (human) (UniProt Q92973). Description: ITC; 10 μM Kapβ2 in the cell, 100 μM or 200 μM MBP-FUS protein in the syringe; 20 mM Tris–HCl, 150 mM NaCl, 10% glycerol, 2 mM BME; 20 °C; single class of binding sites, global analysis of duplicates or triplicates.

Chain of Kapβ2 (untagged, GST removed) (human) (Q92973 9-898): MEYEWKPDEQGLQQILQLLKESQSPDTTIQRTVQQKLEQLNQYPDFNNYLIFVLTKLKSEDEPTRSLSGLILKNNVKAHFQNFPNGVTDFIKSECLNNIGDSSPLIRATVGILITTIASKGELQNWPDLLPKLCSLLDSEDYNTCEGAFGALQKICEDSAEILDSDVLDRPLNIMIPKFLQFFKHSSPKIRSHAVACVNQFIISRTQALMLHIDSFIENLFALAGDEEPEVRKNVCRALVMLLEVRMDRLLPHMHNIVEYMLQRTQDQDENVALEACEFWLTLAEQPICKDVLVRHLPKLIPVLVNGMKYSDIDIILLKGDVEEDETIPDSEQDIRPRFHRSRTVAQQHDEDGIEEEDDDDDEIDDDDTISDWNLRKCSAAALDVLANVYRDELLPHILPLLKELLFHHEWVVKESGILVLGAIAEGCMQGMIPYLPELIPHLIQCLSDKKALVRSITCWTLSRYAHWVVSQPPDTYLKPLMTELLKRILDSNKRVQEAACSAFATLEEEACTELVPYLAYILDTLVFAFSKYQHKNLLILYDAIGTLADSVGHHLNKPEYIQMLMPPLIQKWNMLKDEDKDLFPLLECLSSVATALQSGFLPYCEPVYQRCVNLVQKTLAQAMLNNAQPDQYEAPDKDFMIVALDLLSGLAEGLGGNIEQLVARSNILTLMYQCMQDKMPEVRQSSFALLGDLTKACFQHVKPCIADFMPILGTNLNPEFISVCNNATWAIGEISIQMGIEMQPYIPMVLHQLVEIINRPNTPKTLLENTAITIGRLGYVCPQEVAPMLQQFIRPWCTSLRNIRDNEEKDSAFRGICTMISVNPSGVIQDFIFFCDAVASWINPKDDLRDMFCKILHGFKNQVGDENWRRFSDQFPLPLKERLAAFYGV

The term Kd denotes the constant that tells how readily two partners part at equilibrium. “MBP-FUS(453–500) (RGG3) (from UniProt P35637 453-500) (domain or fragment)” showed a Kd of 6 µM.
